Laboratory results from article PMC8060896 (The Journal of Biological Chemistry, 2002).

How the values were obtained:
[1] = molecular target: N-CEACAMFc (N-domain of murine CEACAM1^a linked to a carboxyl-terminal IgG1 Fc) (murine); experiment: pull-down
[2] = molecular target: N-CEACAMFc (N-domain of murine CEACAM1^a linked to a carboxyl-terminal IgG1 Fc) (murine); experiment: pull-down; remark: listed apart in the source
Target sequence in this assay (P31809 35-428): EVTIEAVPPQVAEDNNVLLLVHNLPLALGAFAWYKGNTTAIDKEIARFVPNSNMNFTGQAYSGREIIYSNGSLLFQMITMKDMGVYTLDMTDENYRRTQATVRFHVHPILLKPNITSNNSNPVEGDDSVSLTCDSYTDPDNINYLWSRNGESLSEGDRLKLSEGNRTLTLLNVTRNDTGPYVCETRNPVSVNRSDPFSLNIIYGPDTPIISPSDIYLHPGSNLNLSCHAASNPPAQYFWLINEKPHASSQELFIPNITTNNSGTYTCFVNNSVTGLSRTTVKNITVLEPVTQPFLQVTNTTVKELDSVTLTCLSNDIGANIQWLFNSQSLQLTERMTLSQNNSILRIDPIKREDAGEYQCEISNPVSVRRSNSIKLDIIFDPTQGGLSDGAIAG

[3] = molecular target: the molecule itself; experiment: velocity sucrose gradient ultracentrifugation

S_(T212S/Y214S/Y216S) (full-length S of JHM strain with the indicated substitutions) (from UniProt P11225 14-1235) (natural protein)
35S in the boxed band precipitated with N-CEACAMFc [1]: 2140 cpm

Hetero-oligomer of S_(T212S/Y214S/Y216S) with wild-type S1_(330) (from UniProt P11225 14-1235; P11225 14-330) (complex)
35S in the boxed band precipitated with N-CEACAMFc [1]: 4330 cpm

B1: S1 co-produced with N-CEACAMFc in 293 cells (domain or fragment)
chain: GYIGDFRCIQTVNYNGNNASAPSISTEAVDVSKGRGTYYVLDRVYLNATLLLTGYYPVDGSNYRNLALTGTNTLSLTWFKPPFLSEFNDGIFAKVQNLKTNTPTGATSYFPTIVIGSLFGNTSYTVVLEPYNNIIMASVCTYTICQLPYTPCKPNTNGNRVIGFWHTDVKPPICLLKRNFTFNVNAPWLYFHFYQQGGTFYAYYADKPSATTFLFSVYIGDILTQYFVLPFICTPTAGSTLAPLYWVTPLLKRQYLFNFNEKGVITSAVDCASSYISEIKCKTQSLLPSTGVYDLSGYTVQPVGVVYRRVPNLPDCKIEEWLTAKSVPSPLNWERRTFQNCNFNLSSLLRYVQAESLSCNNIDASKVYGMCFGSVSVDKFAIPRSRQIDLQIGNSGFLQTANYKIDTAATSCQLYYSLPKNNVTINNYNPSSWNRRYGFKVNDRCQIFANILLNGINSGTTCSTDLQLPNTEVATGVCVRYDLYGITGQGVFKEVKADYYNSWQALLYDVNGNLNGFRDLTTNKTYTIRSCYSGRVSAAYHKEAPEPALLYRNINCSYVFTNNISREENPLNYFDSYLGCVVNADNRTDEALPNCNLRMGAGLCVDYSKSRRARRSVSTGYRLTTFEPYMPMLVNDSVQSVGGLYEMQIPTNFTIGHHEEFIQIRAPKVTIDCAAFVCGDNAACRQQLVEYGSFCDNVNAILNEVNNLLDNMQLQVASALMQGVTISSRLPDGISGPIDDINFSPLLGCIGSTCAE
^35S-labeled S1:^35S-labeled N-CEACAMFc ratio [2]: 3.4

B2: S1 (769-residue S1 fragment of the MHV strain JHM spike protein, produced independently from cDNA) (domain or fragment)
chain: GYIGDFRCIQTVNYNGNNASAPSISTEAVDVSKGLGTYYVLDRVYLNATLLLTGYYPVDGSNYRNLALTGTNTLSLTWFKPPFLSEFNDGIFAKVQNLKTNTPTGATSYFPTIVIGSLFGNTSYTVVLEPYNNIIMASVCTYTICQLPYTPCKPNTNGNRVIGFWHTDVKPPICLLKRNFTFNVNAPWLYFHFYQQGGTFYAYYADKPSATTFLFSVYIGDILTQYFVLPFICTPTAGSTLLPLYWVTPLLKRQYLFNFNEKGVITSAVDCASSYISEIKCKTQSLLPSTGVYDLSGYTVQPVGVVYRRVPNLPDCKIEEWLTAKSVPSPLNWERRTFQNCNFNLSSLLRYVQAESLSCNNIDASKVYGMCFGSVSVDKFAIPRSRQIDLQIGNSGFLQTANYKIDTAATSCQLYYSLPKNNVTINNYNPSSWNRRYGFNDAGVFGKSKHDVAYAQQCFTVRPSYCPCAQPDIVSACTSQTKPMSAYCPTGTIHRECSLWNGPHLRSARVGSGTYTCECTCKPNPFDTYDLRCGQIKTIVNVGDHCEGLGVLEDKCGNSDPHKGCSCANDSFIGWSHDTCLVNDRCQIFANILLNGINSGTTCSTDLQLPNTEVATGVCVRYDLYGITGQGVFKEVKADYYNSWQALLYDVNGNLNGFRDLTTNKTYTIRSCYSGRVSAAYHKEAPEPALLYRNINCSYVFTNNISREENPLNYFDSYLGCVVNADNRTDEALPNCDLRMGAGLCVDYSKSRRARR
stoichiometry N [3]: 2
